What was measured:
MS2 coat protein [1] = assay: apparent KD of MS2 coat protein, switch ON state; designed switch direction (-1 OFF switch, 1 ON switch): 1; higher = weaker reporter binding; details: FMN input: 0 or 200 uM; Eterna round: R93 (includes R88 designs)
Method in brief: (§1)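 Each design's apparent KD comes from the median of binding-curve fits to its normalised clusters. Those clusters carried RNA switches transcribed on-chip from Illumina sequencing clusters. SNAP-549-labelled MS2 coat protein was titrated onto them in twofold steps (0.7 or 1.5 nM to 3 µM; per step 0.8–1.5 h down to 10–20 min). Conditions were 100 mM Tris-HCl pH 7.5, 80 mM KCl, 4 mM MgCl2, without or with constant ligand.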

MS2 coat protein [2] = assay: apparent KD of MS2 coat protein, switch OFF state (with FMN for OFF switches, without FMN for ON switches); designed switch direction (-1 OFF switch, 1 ON switch): 1; higher = weaker reporter binding; details: FMN input: 0 or 200 uM; Eterna round: R93 (includes R88 designs)
Method in brief: as §1

| Sequence | apparent KD of MS2 coat protein (MS2 coat protein [1]) | apparent KD of MS2 coat protein (MS2 coat protein [2]) |
| --- | --- | --- |
| GGCAGGAAGAGAGAGGAUAUCCAAAGGAAAACAUGAGGAUCACCCAUGUAAAAGGUAGGAAAUUGGGAGAAGGCUCAAGAGAGAG [salish99-ss2-099] | 30.9 nM | 35.4 nM |
| AAGAAACAUGAGGAUCACCCAUGUAAAUAAAACACAGGAUAUCGAAUAUGGGAGAUUUAACGAGAAGGGUGAAGAA [Meechl MS2 SS1 3] | 36 nM | 87.7 nM |
| CGAGAGGAGAGAGAGGAUAUCCAAAGGAAAACAUGAGGAUCACCCAUGUAGAAGGUAGGAGAUUGGGAGAAGGCUCAAGAAGAAG [salish99-ss2-159] | 18.2 nM | 26 nM |
| AUAACACAUGAGGAUCACCCAUGUAGAUACAAGUCAGGAUAUGCAACCUCAUGAAAAAAAGCAGAAGGGACAAUAA [SS 1 Tesla 3] | 27.5 nM | 85.4 nM |
| AAGGAACAUGAGGAUCACCCAUGUAAAAAAUAUGGAGGAUAUACUAGAAGAAACAAAAUAGUAGAAGGCCAAAAAA [75%, Ex sub1, 30] | 16.5 nM | 20.6 nM |
| AUAAAUAAAGUUAAGGAUAUUAUAAAGAAAACAUGAGGAUCACCCAUGUAAAAGAAAAUAGUGGGUAAGAAGGUAACAAAUAAAU [SS2 M 18] | 23.1 nM | 42.7 nM |
| AAACCACAUGAGGAUCACCCAUGUGAAAUACAUACAGGAUAUGCGAAAAGAAACAAAGAAGCAGAAGGGUGAAAAA [75%, Ex sub1, 18] | 15.9 nM | 25.4 nM |
| AGGAAACAUGAGGAUCACCCAUGUAAAUAUGGGCGAGGAUAUCGAAAGAAAAGAAAGAAACGAGAAGGCGCAAAAG [GU on the end] | 49.2 nM | 295 nM |
| GGGAGACAUGAGGAUCACCCAUGUGAGAAGAGGCGAGGAUAUCGAAAAAAAAAAAAAAAACGAGAAGGCGCGAGAC [salish99-SS1-006] | 33.6 nM | 94.5 nM |
| AAAAAACAUGAGGAUCACCCAUGUCCUCGGACGUGAGGAUAUGUACAGACUUCGGUCUGUACAGAAGGCAUGUAAA [SS1 - 1051] | 555 nM | 379 nM |
| AAAAAACAUGAGGAUCACCCAUGUCGAAAGACGUGAGGAUAUGUACAGACUUCGGUCUGUACAGAAGGCAUGAAAA [SS1 - 1057] | 79.5 nM | 176 nM |
| AAACCACAUGAGGAUCACCCAUGUGAAAAAAACAUAGGAUAUGGAAACACGAAAGUGAAACCAGAAGGGUGAAAAA [77%, Mat - Mod of Eli, 27] | 24.3 nM | 23.8 nM |
| AAUAUAUUAAGUGAGGAUAUCAUAGGAAAAACAUGAGGAUCACCCAUGUGGGAAACCUGGUCGGGUGAGAAGGCACUUAAUAUAU [Samwise Clockwise 30 - Jieux - Same State 2] | 37.5 nM | 217 nM |
| CGGAAAGAGAGAGAGGAUAUCCAAAGGAAAACAUGAGGAUCACCCAUGUAGAAGGUAGGAAAUUGGGAGAAGGCUCAAGAGAGAG [salish99-ss2-132] | 25.3 nM | 26.7 nM |
| AAAUAAAUGACUGAGGAUAUAUCGAUGAAAACAUGAGGAUCACCCAUGUGAUAAUAAAAAGGGUGGUAGAAGGUAGUCAACAAAC [Mod 12 of Pariah 4 by Hyphema in Round 1] | 55.5 nM | 207 nM |
| AGAAAUAAAAGAGAGGAUAUCCAAAAUAAAACAUGAGGAUCACCCAUGUGAAACAAAACAAAAUGGGAGAAGGCUCAAAAUAAGA [Topaz 17] | 15.7 nM | 33.9 nM |
| CGCCAAUUGGCACAGGAUAUGAGCAUGCUCACAUGAGGAUCACCCAUGUGAUUAACAACGCAAUAUCAGAAGGGUGCCCUCAUCA [Leonon] | 50.3 nM | 33.1 nM |
| AACAAUCUAUCUGAGGAUAUGUGUCGAAAGACAUGAGGAUCACCCAUGUAAAAACAUGAAAAAACACAGAAGGCAGAUAGAUUGA [SS2: 1146] | 62.6 nM | 81.5 nM |
| AAAAAACAUGAGGAUCACCCAUGUGCAAAAUUCGCAGGAUAUUCCUCAAUUAAAUGAGAGGAAGAAGGGUGACAAA [Nob's Hobby 29 - Jieux - Same State 1] | 112 nM | 500 nM |
| AAUGAACAUGAGGAUCACCCAUGUUCUAAUAGUUGAGGAUAUAUGGGUGAAAAUAGCACGGUAGAAGGCGAGUGUA [SameState1 Malc#18] | 249 nM | 104 nM |
| AGGAAACAUGAGGAUCACCCAUGUAAAAAUAUCACAGGAUAUGGAAACACGAAAGUGAAACCAGAAGGGUGAAAAG [77%, Mat - Mod of Eli, 13] | 13.2 nM | 32 nM |

Source: the supplement of paper PMC9170038
